Test [1] deals with T1, human complement C4b (human, UniProt P0C0L4, biotin (EZ link Maleimide-PEG2-Biotin) coupled to its thiol group, only where C4b was held on the SPR chip).
T1 construct: beta chain (75 kDa) of human complement C4; alpha' chain (87 kDa) of human C4b, the alpha chain of C4 after removal of C4a; gamma chain (33 kDa) of human complement C4; One molecule for unlabelled C4b (SEC, cryo-EM, analyte in SPR), C4b biotinylated at the thiol (ligand in SPR) and C4b deposited on erythrocytes from serum; The CTC domain is not in the deposited models; source: bought: Complement …
T1 sequence (P0C0L4 20-675, chain 1 of 3): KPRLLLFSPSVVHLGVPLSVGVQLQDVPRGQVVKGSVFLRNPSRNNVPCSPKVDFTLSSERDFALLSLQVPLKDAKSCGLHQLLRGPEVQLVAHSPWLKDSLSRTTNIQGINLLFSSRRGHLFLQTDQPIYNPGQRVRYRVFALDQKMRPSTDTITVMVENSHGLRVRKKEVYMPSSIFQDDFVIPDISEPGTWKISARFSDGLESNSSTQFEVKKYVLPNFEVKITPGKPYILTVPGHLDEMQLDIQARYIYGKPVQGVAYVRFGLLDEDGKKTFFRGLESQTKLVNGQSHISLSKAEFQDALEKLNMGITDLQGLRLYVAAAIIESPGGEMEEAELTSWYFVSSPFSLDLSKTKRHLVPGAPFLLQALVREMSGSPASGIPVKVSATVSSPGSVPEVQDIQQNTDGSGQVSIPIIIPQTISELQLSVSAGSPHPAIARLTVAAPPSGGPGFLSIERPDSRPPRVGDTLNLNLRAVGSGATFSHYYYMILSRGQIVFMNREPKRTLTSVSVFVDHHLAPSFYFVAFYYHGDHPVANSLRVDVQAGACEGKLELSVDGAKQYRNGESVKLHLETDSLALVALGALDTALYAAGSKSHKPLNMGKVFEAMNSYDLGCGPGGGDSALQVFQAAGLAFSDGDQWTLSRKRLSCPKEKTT
T1 sequence (P0C0L4 757-1446, chain 2 of 3): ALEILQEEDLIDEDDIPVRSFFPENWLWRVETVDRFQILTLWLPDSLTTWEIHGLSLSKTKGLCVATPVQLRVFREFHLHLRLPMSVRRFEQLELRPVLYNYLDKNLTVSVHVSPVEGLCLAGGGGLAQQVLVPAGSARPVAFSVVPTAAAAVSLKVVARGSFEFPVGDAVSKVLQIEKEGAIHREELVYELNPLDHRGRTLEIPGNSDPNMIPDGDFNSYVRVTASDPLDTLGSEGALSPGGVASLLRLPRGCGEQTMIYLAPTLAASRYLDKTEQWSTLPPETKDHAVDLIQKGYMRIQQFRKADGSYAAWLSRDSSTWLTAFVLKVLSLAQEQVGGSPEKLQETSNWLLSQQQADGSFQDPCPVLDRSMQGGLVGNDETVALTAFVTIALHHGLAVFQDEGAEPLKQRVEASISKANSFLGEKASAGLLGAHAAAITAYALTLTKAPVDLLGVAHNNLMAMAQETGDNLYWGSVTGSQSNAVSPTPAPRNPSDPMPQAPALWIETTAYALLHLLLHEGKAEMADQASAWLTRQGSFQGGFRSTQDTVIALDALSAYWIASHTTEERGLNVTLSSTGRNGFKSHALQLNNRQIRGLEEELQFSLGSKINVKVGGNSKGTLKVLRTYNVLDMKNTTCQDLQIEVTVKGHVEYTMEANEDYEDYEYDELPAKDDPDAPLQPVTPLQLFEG
T1 sequence (P0C0L4 1454-1744, chain 3 of 3): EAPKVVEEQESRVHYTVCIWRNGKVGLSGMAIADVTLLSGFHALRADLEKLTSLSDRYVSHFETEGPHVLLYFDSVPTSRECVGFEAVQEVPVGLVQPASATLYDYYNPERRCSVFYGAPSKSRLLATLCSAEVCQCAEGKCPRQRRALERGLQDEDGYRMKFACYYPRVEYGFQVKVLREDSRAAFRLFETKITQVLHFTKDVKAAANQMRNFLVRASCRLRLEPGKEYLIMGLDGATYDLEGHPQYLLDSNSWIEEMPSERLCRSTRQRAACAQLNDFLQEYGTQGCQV
Briefly: SPR; biotinylated nanobodies (100 nM) spotted on a streptavidin chip; kinetic titration with C4b as analyte, five-step twofold dilution without regeneration, last dissociation 1 h; 20 mM HEPES pH 7.4, 150 mM NaCl, 3 mM MgCl2; NbE11 and NbH11 fitted with mass transport; duplicate. The note with it: both partners purified.

The target of test [2] is T1, human complement C4b. As to the kind of experiment: SPR; biotinylated C4b (50 nM) spotted on a planar streptavidin chip through its thiol group; nanobodies injected in a 14-step twofold dilution series; IBIS-MX96; 20 mM HEPES pH 7.4, 150 mM NaCl, 3 mM MgCl2; simple bimolecular model, NbE3 with mass transport; duplicate. The note with it: both partners purified.

B1: NbB12 (VHH)
VHH: EVQLVESGGGLVQAGGSLRLSCVASERTYMAWFRQAPGKEREFVAAITSSGMMTEYAPSVKGRFTISRDNAKNTVYLQMNSLKPEDTAVYYCAADLRQRFGERVTEYDYWGQGTQVTVSS
notes: Vector: modified pHEN6 with thrombin cleavage site and 6xHis, N-terminal pelB leader; no cleavage of the tag is told; also called NbB12-AF488; source: E. coli BL21 Codon Plus (DE3)-RIL, periplasm, purified (Ni-NTA, SEC)
What is called Kd is the free concentration of one partner at which half of the binding sites on the other are occupied at equilibrium, for simple one-to-one binding. Low values mean a tighter complex, high ones a looser complex. For orientation: koff means the rate constant with which the complex falls apart. In test [1], B1 displayed a Kd of 0.014 ± 0.004 nM and a koff of 3.8e-06 s⁻¹.

B2: NbB5 (VHH)
VHH: EVQLVESGGGLVQPGGSLRLSCAASGFTFSSYHMSWVRQAPGKGLEWISVINDSGDLTRYADSVKGRFTISRDNAKNTLYLQMNSLQPEDTAVYSCLKSSDFYSYSNADSRGQGTQVTVSS
notes: Vector: modified pHEN6 with thrombin cleavage site and 6xHis, N-terminal pelB leader for periplasmic secretion; no cleavage of the tag is told; source: E. coli BL21 Codon Plus (DE3)-RIL, periplasm, purified (Ni-NTA, SEC)
In test [1], B2 gave a Kd of 0.067 ± 0.006 nM and a koff of 1.3e-05 s⁻¹.

B3: NbE3 (VHH)
VHH: EVQLVESGGGLVQAGGSLRLSCAASGSDFSANAVGWYRQAPGKQRVVVASISSTGNTKYSNSVKGRFTISRDNAKNTVYLQMNSLKPEDTAVYYCWLFRFGIENYWGQGTQVTVSS
notes: Vector: modified pHEN6 with thrombin cleavage site and 6xHis, N-terminal pelB leader; no cleavage of the tag is told; also called NbBE3; source: E. coli BL21 Codon Plus (DE3)-RIL, periplasm, purified (Ni-NTA, SEC)
In test [2], B3 displayed a dissociation constant (Kd) of 0.318 ± 0.01 nM and a koff of 0.0066 s⁻¹.

Source of the values: paper PMC9047069, “Multifaceted Activities of Seven Nanobodies against Complement C4b” (The Journal of Immunology Author Choice, 2022).
